Laboratory results reported in patent US20180118837A1 (Hoffmann-La Roche, published 2018).

Legend:
[1] = biological target: SBP-tagged HER3-ECD (human); test: ELISA-type assay, 10 nM Eu-labelled Heregulin-beta on plate-bound SBP-tagged HER3-ECD, M-05-74 titrated
HER3 ECD-HRG complex [2] = biological target: T1, HER3 ECD-HRG complex (human, UniProt P21860 20-643); test: binding affinity; method not restated (evaluated 'as described above')
T1 construct: Her-3 ECD pre-incubated with a 5-fold molar excess of Heregulin; also called Heregulin/Her-3 ECD
T1 sequence (P21860 20-643 limits assumed, one chain of several): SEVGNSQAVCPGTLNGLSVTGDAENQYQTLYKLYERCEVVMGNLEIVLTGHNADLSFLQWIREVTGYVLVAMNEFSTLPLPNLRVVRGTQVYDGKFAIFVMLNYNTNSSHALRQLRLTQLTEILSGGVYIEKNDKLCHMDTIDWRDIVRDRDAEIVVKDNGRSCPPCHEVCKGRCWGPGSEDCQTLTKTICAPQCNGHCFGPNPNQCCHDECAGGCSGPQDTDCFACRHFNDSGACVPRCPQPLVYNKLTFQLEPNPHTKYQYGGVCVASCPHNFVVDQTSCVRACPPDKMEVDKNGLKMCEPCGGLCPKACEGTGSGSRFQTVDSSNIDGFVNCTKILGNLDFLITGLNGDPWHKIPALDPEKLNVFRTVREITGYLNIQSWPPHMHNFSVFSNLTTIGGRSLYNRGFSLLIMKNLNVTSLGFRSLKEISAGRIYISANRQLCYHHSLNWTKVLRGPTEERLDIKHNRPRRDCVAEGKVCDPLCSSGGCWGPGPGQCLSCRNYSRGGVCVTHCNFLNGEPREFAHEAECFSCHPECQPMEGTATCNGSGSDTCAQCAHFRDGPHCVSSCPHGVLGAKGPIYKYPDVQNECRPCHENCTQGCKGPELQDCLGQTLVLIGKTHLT

[3] = biological target: T2, human recombinant HER3 ECD (human, UniProt P21860 20-643); test: binding affinity; method not restated (evaluated 'as described above'); HER3-ECD without HRG
T2 construct: 68 kDa recombinant protein; also called human-Her3-ECD; full length Her3 ECD
T2 sequence (P21860 20-643): as the sequence (P21860 20-643 limits assumed, one chain of several) above

[4] = biological target: T2, human recombinant HER3 ECD; test: binding affinity; method not restated (evaluated 'as described above')
HER3 ECD-HRG complex [5] = biological target: T1, HER3 ECD-HRG complex; test: SPR Biacore T100, antibody captured
HER4 ECD-HRG complex = biological target: T3, HER4 ECD-HRG complex (human, UniProt Q15303 26-651); test: SPR Biacore T100, antibody captured
T3 construct: Her-4 ECD pre-incubated with a 5-fold molar excess of Heregulin; also called Her-4 ECD/Heregulin complex
T3 sequence 1: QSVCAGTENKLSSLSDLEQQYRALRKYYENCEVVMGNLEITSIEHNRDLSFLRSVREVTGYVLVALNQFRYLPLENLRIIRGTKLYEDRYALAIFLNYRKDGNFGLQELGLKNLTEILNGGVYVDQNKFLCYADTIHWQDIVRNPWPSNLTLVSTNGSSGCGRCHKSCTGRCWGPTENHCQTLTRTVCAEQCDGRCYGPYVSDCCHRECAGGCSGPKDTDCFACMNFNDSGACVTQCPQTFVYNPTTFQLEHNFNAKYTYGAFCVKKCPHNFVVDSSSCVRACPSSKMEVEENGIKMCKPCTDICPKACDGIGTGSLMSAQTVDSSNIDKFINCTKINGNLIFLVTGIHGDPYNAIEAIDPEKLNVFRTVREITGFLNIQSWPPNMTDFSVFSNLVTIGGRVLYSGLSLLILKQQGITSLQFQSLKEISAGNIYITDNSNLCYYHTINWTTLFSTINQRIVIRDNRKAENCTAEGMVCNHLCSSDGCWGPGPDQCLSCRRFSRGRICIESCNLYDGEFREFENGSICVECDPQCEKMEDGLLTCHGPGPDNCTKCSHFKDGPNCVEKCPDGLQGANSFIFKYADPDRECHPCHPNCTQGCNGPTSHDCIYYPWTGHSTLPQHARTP
T3 sequence 2: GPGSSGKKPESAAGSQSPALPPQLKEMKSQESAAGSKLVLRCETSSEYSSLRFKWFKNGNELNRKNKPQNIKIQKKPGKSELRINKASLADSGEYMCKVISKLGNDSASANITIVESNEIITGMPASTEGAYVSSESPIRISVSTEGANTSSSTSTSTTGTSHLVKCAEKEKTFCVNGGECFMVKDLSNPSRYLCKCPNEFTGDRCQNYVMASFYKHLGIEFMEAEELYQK

Chain of SBP-tagged HER3-ECD (human) (chain, as listed by the source limits assumed, form in doubt): as the sequence (P21860 20-643 limits assumed, one chain of several) above

Work on “Europium-labeled Heregulin-beta (PeproTech, Cat. #100-03) (from UniProt Q02297-11 122-186) (ligand)” yielded a time-resolved fluorescence signal at the plateau, in the presence of M-05-74 [1] of 650.

B1: huMab M-05-74_5 (antibody, V domains shown)
VH: QVQLVQSGAELKKPGASVKVSCKASGYTLTDYWIHWVRQAPGQGLEWMGYINPYTGYTESNQKFQGRVTMTADTSTSTAYMELSSLRSEDTAVYYCARPYYYGDYWGQGTTVTVSS
VL: EIVLTQSPATLSLSPGERATLSCRASSSVSYMHWYQQKPGQAPRLLIYSTSNLATGIPARFSGSGSGTDFTLTISSLEPEDFAVYYCQQRSSYPFTFGQGTKLEIK
notes: Humanized variant of M-05-74
With B1 the Kd (HER3 ECD-HRG complex [2]) was 4.1 nM and the Kd [3] was 3.2 nM.

B2: huMab M-05-74_6 (antibody, V domains shown)
VH: B1 VH
VL: DIQMTQSPSSLSASVGDRVTITCRASSSVSYMHWFQQKPGKAPKLLIYSTSNLQSGVPSRFSGSGSGTDFTLTISSLQPEDFATYYCQQRSSYPFTFGQGTKLEIK
notes: Humanized variant of M-05-74
In the case of B2, the Kd (HER3 ECD-HRG complex [2]) is reported as 8.6 nM and the Kd [4] is reported as 8.3 nM.

B3: anti-HER3/HER4 antibody M-05-74 (antibody, V domains shown)
VH: QVQLQQSGAELAKPGASVKMSCKTSGYTLTDYWIHWVKQRPGQGLEWIGYINPYTGYTESNQKFKDKATLTADKSSNTAYIQLSSLTSEDSAVYYCARPYYYGDYWGQGTTLTVSS
VL: QIVLTQSPAIMSASPGERVTITCSASSSVSYMHWFQQKPGTSPKLLIYSTSNLASGVPARFSGSGSGTSYSLTISRMEAEDAATYYCQQRSSYPFTFGSGTKLEIK
notes: Murine monoclonal antibody from hybridoma (culture supernatant or purified full length); also called M-074; M-5-74
With B3 the “ratio MR (+Heregulin)/MR (-Heregulin), against HER3-ECD alone” value (HER3 ECD-HRG complex [5]) was 3 fold, the “ratio ka (+Heregulin)/ka (-Heregulin), against HER3-ECD alone” value (HER3 ECD-HRG complex [5]) was 4.85 fold and the “ratio MR (+Heregulin)/MR (-Heregulin), against HER4-ECD alone” value (HER4 ECD-HRG complex) was 6 fold. For the same molecule, the “ratio ka (+Heregulin)/ka (-Heregulin), against HER4-ECD alone” value (HER4 ECD-HRG complex) was 23.9 fold.
